From PMC12176259, “Bacterial transcriptional repressor NrdR – a flexible multifactorial nucleotide sensor” (The Febs Journal, 2025)
pKd: −log10 of the molar value. Values joined by “and” are separate entries in the source; they are usually repeats but may differ in a detail not shown here. Equal entries are not always repeated.

Biological target: T1, NrdR (EcoNrdR) (Escherichia coli K-12 MG1655) (UniProt P0A8D0)
T1 sequence: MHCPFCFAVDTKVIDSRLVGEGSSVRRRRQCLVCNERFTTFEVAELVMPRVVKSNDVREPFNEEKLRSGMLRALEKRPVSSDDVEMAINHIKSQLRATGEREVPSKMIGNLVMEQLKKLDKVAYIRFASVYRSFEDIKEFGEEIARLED
Assay: MST
Details: 17 mM Tris-HCl pH 8.6 (room temperature), 100 mM NaCl, 7 mM MgCl2, 0.33 mM TCEP, 0.025% Tween-20, nucleotide effectors 1 mM each, 5 nM Cy5-dsDNA, low values mean tight binding

Sequence	pKd
ACTATTTGCTATATATTGTGTGGTTGAATCTTTTTTCAACTACATCTAGTATCTCTG (double strand) [nrdHIEF promoter (nrdEF_Cy5)]	6.86 and 6.48 and 6.73
CATACCCCCTATATATAGTGTTCTAAGCAGCTTCCCGTACTACAGGTAGTCTGCATG (double strand) [nrdAB promoter box 1+2]	6.89 and 6.95 and 7.02
GCAAAGCACTATATATAGACTTTAAAATGCGTCCCAACCCAATATGTTGTATTAATC (double strand) [nrdDG promoter]	6.80 and 6.77 and 6.82
